The values that follow come from a protein production outcome set (Wang et al. 2014).

The data set in a line: label from the status in PepcDB records.
On to “MCMLEPSKIFKALSNPINLKILTLLRSSSFHPRELARILNRDETDISRRLRQLERLGLIKGKWERVDGKNVRVYSLKVSEIRIFMHPTKLEVKVGENESYEAPIEWESSPRVEVFVGRKRELSIIRNAKGVVVIYGIAGIGKTSLAAKAFPNAYWYNVTGLEDFKYFAWQLGLFLSSIGFEDLLEYLRGGGNNENDIFKLITEGIEKTGAIIIIDDFHKFQDEKVNYLLSYLAPRIKKGKVIITTRIRPNLGNEGVTYVNLKGLNPEEAYSLAREKEKSMTPEEFAKLYKLTFGHPLMLNLILESSEILATGKDTVFNFLFEEVYQMLNEEEKDLLSILSLFDEPIEYEGIKFLYDRNPFVPLYSLMKKGLIEKKGEKYFVHDMVREFVREVSNQEEKEVYLRHVNFLLKSKTPINFLRAFKYAIKVGSSELIRNLVELRVKEFYRIIVDFPRMYQRLLMEVEDNPYAKIEIAIIEVQRGLFEKAIKLLKEAEPYVDEFFKCEIYSWLADAYMELENLEKAERYLKKTKEIVEKINDMYAWFSYYAEKTKYEYYKENSREALKSALKELEIIRKIGDPEKEGLVLLHVGDIYLHMGNYEKGISYYQEALKMAKAYGIKFLEHISYMELAKGYYQLKLYEKASEYSEKAANYFLMIRNYRRATDAMAYGSVSYIATKNLEKAEKFAKEMIRIAQSTDYPLAWAGYIFLAAVDFLKGDDWREDYNLGKAHLKEYPWLFEAVLDELKKVFDLSNFK”, for which the protein production result is reported as “failed”.

Consider “MSLSVEFNKQQVRPRSEISPQDCWDITPLYLNRKAWKADLDSFGLKTDGSPTWPALQATQYQLDNSESLLSLLTTLFSIERKLNKLYVYAHLTHDQDITNQEGIADLKSITHLHTLFAEETSWVQPALTSLSESLIAQHLSAPCLAPYRFYLEKIFRLSIHTGTPGEEKILASAFTPLEVASKAFSSLSDSEIPFGQATDSEGNSHPLSHALASLYMQSTDRELRKTSYLAQCERYHSYRHTFANLLNGKIQAHVFYAKNKRYNSCLQAALYHNNIPTTVYTNLIDIVKKNSSLITKYFSIKQRCLNLKDFHFYDVYAPLSQSKEKKYTFQEAVDLIYTSLSPLGTEYIDTLKQGLTTQGWVDKYENLNKRSGAYSSGCYDSHPYVLLNYTGTLYDVSVIAHEGGHSMHSYFSRKHQPFHDAQYPIFLAEIASTLNEMLLMDSMLKESDSKEEKITILTRCLDTIFSTLFRQVLFASFEYDIHHAAEHGVPLTEEYLSSTYKNLQNEFYGEIITFDVLSNIEWARIPHFYYNFYVYQYATGIIAALCFLEKILNNEDNALNSYLNFLKSGGSDFPLEILKKSGLDMGTVEPIQKAFCFIEKKIQELSSLIEGHHHHHH”, for which the protein production result was “not failed”.

“MLKNLRIRKFEPEEEYVYFTYSIKNDKREKSKELIREYTTLLQKAIDYLWNLTKIQVRKKNGNYKITLPKKREVYKPLREELEKINHLASHYVDKAINDAFSILKSWRKRAIKGRASIEKPRVKKAYVRIKTTLRKVVGESVRITVRPHEYITFSWSKSWFSRRVRELELGEPIIKEEKVYLPFRYKLPWATPVDFLAIDSNLYTLDAYDGEKFVTISLKQLYSLKYSMEVKRAKVQSFASKHTKRGRELMRKYSHRERNRVLDFVHKFVNTLLDLYPMTFFAVEKLNKESMFKDANDSLSRKISRTVWGSIHRVLKYKAPLYGSFVKEVNPRFTSRSCPRCGFVSRKVGKTFECERCGFKLDRQLNASLNIYLKMCGFPHIREIARVWVGVIPLMGRRGMNGFPRDFGEAQGLRIDIEYHEIPLEHHHHHH”: the protein production entry is “not failed”.

As for “MPQITIIVPVYNAERTLERCVRSIQAQTVVNWELLLIDDGSEDYSSKLCDEYAIQDSRIRVFHQVNGGASSARNVGLEYTKGEWVVFCDSDDWVDSNWLELFKNQIDNGTELIVQGFIPHGNLWQSRTGINFHGNVKTGILKLQEENILGFMCTKMYKREIIEQCGLRFDTELVLREDELFMLQYAEYISTIQCMEEGAYHYDMPDFSTKYGNIDLFNMFLKIYVVLKRIFSGEDNLLLQNYENDLTQSLFHSFVMRHDDRCKKLENYRKEVGKRVLGVKSLSQFSKYILAYVPSFQVAYLLLEAKAKIVKSMQLEHHHHHH”, the protein production result is recorded as “not failed”.

On to “MKVAGDKIKQARKLKKITQSELANGICTQATISNIENRNLCDSLDIFSSICLRLDLEVEECMMISEEKKIENLLNKVEDLSLRLFHLEAYNLLQEVPEGLILSNNELTTKLLYYKGITCLLGKKDKAEALFYLYRGAEIDRKVNIYNILSLNALGTLYELEKDMRKAQVYYEKSLQELEQFKLECSLERCRIYYNSAKFYSEMKDYQKSVILSEKGIQICRDKHSIYLLDYLLYEKAFNKQMLGEDTADDYRQAYYFTQFFGNTEVLQYIEKDMKAFNISY”, for which the protein production result is given as “failed”.
